System: Nc1ncnc2c1ncn2[C@H]1C[C@H](O)[C@@H](COP(=O)(O)OP(=O)(O)OP(=O)(O)O)O1
Test: Single nucleotide (dATP) incorporation kinetics, HERV-K RT
Type: biochemical, human
Details: 20-nt DNA primer, HERV-K RT 12 nM
Description: Extended Data Fig. 5 Comparative enzymology of ORF2p RT with HIV-1 and HERV-K. a, Single nucleotide incorporation kinetic curves and parameters of dATP with 36-nt RNA or DNA template and 20-nt DNA primer with ORF2p core (33 nM), HIV-1 RT (4 nM) and HERV-K RT (12 nM). For each enzyme, Michaelis-Menten parameter kcat/KM is nearly identical on both templates (n = 3 (DNA template) and n = 4 (RNA template) independent samples over 2 independent experiments; data represented as mean ± SD). b, Comparison of HIV-1 RT and ORF2p in extension of very short (5–10 nt) primers, pre-annealed to DNA and RNA templates. ORF2p extends all DNA and RNA primer lengths, with somewhat reduced efficiency at 5 nt and, to a lesser extent, 6 nt. […] ORF2p also makes NTA (+) and template jumping/switching (##) larger products; more visible on longer exposure. […] When all products are quantified, HIV-1 extends 21–37% of primers, and this is roughly halved by the heparin trap; ORF2p extends ~10–18% of primers and is unaffected by the trap. […] Asterisk (*) Cy5-5’-label on primer. n = 1 quantified samples shown representative of two independent experiments. […]

HERV-K RT (Homo sapiens)
Km (other: DNA template 36-nt): 4.3 ± 0.1 nM | Km (other: RNA template 36-nt): 9.5 ± 0.1 nM
